Patent publication US20230212228A1 (ETH Z RICH, published 2023)
Groups on a side chain read outwards from the residue. No end group written: not given here. Mal‑Cy5 = Cy5-maleimide thiol adduct on the Cys side chain

B1: Cy5-FnBPA5 (peptide)
peptide: C([maleimide-Cy5])GGGQVTTESNLVEFDEESTKGIVTGAVSDHTTVEDTK
modifications: not fully specified
notes: A payload-GGG- format by amide bond is also mentioned; also called Cy5-labelled FnBPA5; FnBPA5 peptide
B2: Cy5-FnBPA5.1 (peptide)
peptide: C(Mal‑Cy5)GGGQVTTGSNLVEFTEESLGIVTGAVSDHTTVEDT
notes: also called Cy5-labelled FnBPA5.1

What was measured:
[1] = biological target: T1, Fib1, N-terminal 30 kDa fragment of fibronectin (Homo sapiens (Human), UniProt P02751 32-290); test: fluorescence polarization/anisotropy, Cy5-labelled peptide (48 nM) titrated with Fib1 in PBS pH 7.4
T1 construct: also called Fib1 construct; 30 kDa N-terminal fragment of fibronectin containing the N-terminal FnI1-5 modules
T1 sequence (P02751 32-290 limits assumed): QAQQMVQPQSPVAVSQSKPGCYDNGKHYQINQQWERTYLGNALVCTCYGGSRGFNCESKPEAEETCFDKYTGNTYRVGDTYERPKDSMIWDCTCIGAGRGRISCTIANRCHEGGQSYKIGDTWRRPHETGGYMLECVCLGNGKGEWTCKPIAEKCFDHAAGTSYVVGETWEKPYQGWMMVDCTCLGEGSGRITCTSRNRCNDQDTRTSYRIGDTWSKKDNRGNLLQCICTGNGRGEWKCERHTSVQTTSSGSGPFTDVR

[2] = biological target: T1, Fib1, N-terminal 30 kDa fragment of …; test: fluorescence polarization, Cy5-labelled peptide titrated with Fib1

Binder | Kd [1] | binding result [2]
B1 | 102 nM | 
B2 |  | binds
